{
  "source": "paper PMC12574954",
  "about": "(2025)",
  "binders": {"B1": {"name": "recombinant Fab 8G5F11 (Fab, V domains shown)", "VH": "DVQLQESGPDLVKPSQSLSLTCTVTGYSITSGYSWHWNRQFPGNKLEWMGYIHYSGLTNYNPSLKSRISITRHTSKNQFFLQLNSVTTEDTATYYCVRGGYDGRDYYAMDFWGQGTSVTVSS", "VL": "DIVMTQSHKFMSTSVGDRVSITCKASQDVDNDVAWYQQKPGQSPKLLIYWASTRHTGVPDRFTGSGSGTDFTLTISDVQSEDLSDYFCQQYSSYPFTFGGGTRLEIK"}, "B2": {"name": "monoclonal antibody 8G5F11 (antibody, V domains shown)", "VH": "B1 VH", "VL": "B1 VL"}},
  "biological_target": "T1, thermolysin-generated VSV Gect (aa residues 1-422) (Vesicular stomatitis virus, UniProt P0C2X0 17-438)",
  "T1 chain": "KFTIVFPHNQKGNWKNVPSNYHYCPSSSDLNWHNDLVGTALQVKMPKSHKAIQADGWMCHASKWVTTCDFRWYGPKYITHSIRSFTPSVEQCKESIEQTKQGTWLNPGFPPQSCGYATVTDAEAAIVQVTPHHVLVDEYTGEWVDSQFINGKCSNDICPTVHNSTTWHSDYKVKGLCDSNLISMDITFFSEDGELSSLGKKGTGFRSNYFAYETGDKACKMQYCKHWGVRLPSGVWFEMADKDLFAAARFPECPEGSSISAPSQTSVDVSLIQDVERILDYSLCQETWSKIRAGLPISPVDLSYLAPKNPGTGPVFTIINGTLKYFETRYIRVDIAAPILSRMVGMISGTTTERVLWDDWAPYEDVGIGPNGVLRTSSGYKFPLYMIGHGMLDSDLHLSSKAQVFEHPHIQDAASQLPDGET",
  "assay": "BLI",
  "data": [
    {"binder": "B1", "values": [
      {"measurement": "Kd", "result": 0.72, "unit": "nM"}
    ]},
    {"binder": "B2", "values": [
      {"measurement": "Kd", "result": 1.01, "unit": "nM"}
    ]}
  ]
}
